The record followed here is US20240301031A1 (JIANGSU HENGRUI PHARMACEUTICALS, published 2024).

Experiment [1] has as its target T1, human APRIL (5860-AP-010/CF, R&D Systems) (human, UniProt O75888 115-250, limits assumed).
T1 construct: Bought protein
T1 sequence (looked up): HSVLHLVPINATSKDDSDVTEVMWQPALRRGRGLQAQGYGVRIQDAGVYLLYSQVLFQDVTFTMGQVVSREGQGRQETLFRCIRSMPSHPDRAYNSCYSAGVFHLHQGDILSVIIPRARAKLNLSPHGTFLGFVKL
Description: ELISA, APRIL coated.

Experiment [2] addresses BAFF (R&D Systems, 7537-BF) (UniProt Q9Y275 134-285). The experiment in a line: cell-based or functional assay.
The target in experiment [3] is T2, IL-12/23 p40 (Sino biological, 10052-H08H) (UniProt P29460 23-328).
T2 construct: Bought protein
T2 sequence (looked up): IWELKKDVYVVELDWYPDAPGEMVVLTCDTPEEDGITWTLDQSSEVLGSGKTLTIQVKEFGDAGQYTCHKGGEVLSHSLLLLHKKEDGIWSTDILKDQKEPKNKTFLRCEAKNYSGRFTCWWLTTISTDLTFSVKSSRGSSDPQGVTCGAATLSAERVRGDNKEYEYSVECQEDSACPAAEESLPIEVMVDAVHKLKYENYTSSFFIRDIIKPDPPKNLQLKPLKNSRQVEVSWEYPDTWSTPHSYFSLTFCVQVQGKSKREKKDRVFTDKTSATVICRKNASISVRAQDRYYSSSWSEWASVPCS
Description: ELISA, IL-12/23 p40 coated. Background: ELISA stands for enzyme-linked immunosorbent assay.

The target of experiment [4] is T3, human BAFF (10056-HNCH, Sino biological) (human, UniProt Q9Y275 134-285).
T3 construct: Bought protein
The experiment in a line: competition ELISA: biotin-labeled BAFF to coated BCMA. Here is the method: (§1) A receptor protein was diluted to 2 μg/mL with PBS at pH 7.4 (BasalMedia, B320) and added to a 96-well microplate (Corning, 3590) at 100 μL/well. The plate was incubated at 4° C. overnight. After the liquid was discarded, 200 μL of 1% Casein blocking solution (Thermo, 37528) was added to each well for blocking, and the plate was incubated at 37° C. for 2 h. After the blocking was completed, the blocking solution was discarded, and the plate was washed 3 times with a PBST buffer (PBS at pH 7.4 containing 0.1% tween-20) for later use. A biotin-labeled ligand protein at a fixed concentration was mixed with the antibody or fusion protein diluted in gradient, pre-incubated at 37° C. for 30 min, and added to a blocked microplate. The plate was incubated at 37° C. for 1.5 h. After the incubation was completed, the plate was washed 3 times with PBST. 100 μL of streptavidin-HRP (Invitrogen, 434323, diluted at a ratio of 1:4000) was added to each well, and the plate was incubated at 37° C. for 1 h. The supernatant was removed, and the plate was washed 3 times with PBST. […] The plate was read for absorbance values at 450 nm on a microplate reader, the curves for the inhibition of the binding of the ligands to the receptors were fitted with software, and the IC₅₀ values were calculated. […]

The target in experiment [5] is T3, human BAFF (10056-HNCH, Sino biological). Description: competition ELISA: biotin-labeled BAFF to coated TACI. The procedure:
as §1

Experiment [6] has the same target. Description: SPR (Biacore), sample captured on Protein A, antigen flowed, 1:1 fit. Here is the method:
(§2) A certain amount of test sample was subjected to affinity capture by a biosensor chip Protein A (GE, 29127556), then antigens at a series of concentration gradients were allowed to flow on the surface of the chip. The reaction signals were detected in real time by using Biacore (GE, 8K) to obtain association and dissociation curves. After the dissociation was completed for each cycle, the biochip was washed and regenerated with a 10 mM glycine-hydrochloric acid solution at pH 1.5 (GE, BR-1003-54). The experimental data were fitted using BIAevaluation version 4.1, GE software with a 1:1 model to obtain affinity values. The related antigen proteins used in this assay are as follows: human IL-23 (CT048-H08H, Sino biological), human IL-12 (CT050-H08H, Sino biological), human BAFF (10056-HNCH, Sino biological), human APRIL (5860-AP-010/CF, R&D Systems), cynomolgus monkey p40 (10215-CL, R&D Systems), cynomolgus monkey BAFF (BAF-CM412B, Kactus), cynomolgus monkey APRIL (APR-CM410B, Kactus), mouse BAFF (BAF-M521y, Acro Biosystems), and mouse APRIL (7907-AP/CF, R&D Systems).
(In general: Surface plasmon resonance follows binding to a sensor surface in real time, without labels.)

The target of experiment [7] is T4, cynomolgus monkey BAFF (BAF-CM412B, Kactus) (cynomolgus monkey, UniProt A0A2K5V2X4 134-285).
T4 construct: Bought protein
The description is as above. Here is the method:
as §2

For experiment [8], the target named is T5, mouse BAFF (BAF-M521y, Acro Biosystems) (mouse, UniProt Q9WU72 127-309).
T5 construct: Bought protein
Described as above. The procedure: as §2

Experiment [9] has as its target T3, human BAFF (10056-HNCH, Sino biological). The experiment in a line: competition ELISA: BAFF-R coated on the plate, biotin-labelled BAFF at a fixed concentration pre-incubated with the diluted sample, streptavidin-HRP, OD450 (blocked ligand-receptor pair: BAFF/BAFF-R). Here is the method: as §1
For experiment [10] the target is unchanged. The experiment in a line: ELISA, BAFF coated.
The target in experiment [11] is T6, IL-23 (R&D Systems, 1290-IL-010) (UniProt Q9NPF7 20-189; P29460 23-328).
T6 sequence (looked up) 1: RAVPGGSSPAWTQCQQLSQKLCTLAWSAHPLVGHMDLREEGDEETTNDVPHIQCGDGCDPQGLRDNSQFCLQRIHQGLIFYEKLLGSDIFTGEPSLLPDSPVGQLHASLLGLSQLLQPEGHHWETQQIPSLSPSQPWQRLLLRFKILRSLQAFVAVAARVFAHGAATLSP
T6 sequence (looked up) 2: T2 sequence (looked up)
Description: cell-based or functional assay.

Experiment [12] has as its target T2, IL-12/23 p40 (Sino biological, …). The experiment in a line: ELISA, IL-12/23 p40 coated, sample titrated. Here is the method: The binding activity of the antibodies or fusion proteins for BAFF, APRIL, and IL-12/23 p40 was assayed by the ELISA method (coating an antigen protein). The specific procedures were as follows:
A BAFF (Sino biological, 10056-HNCH), APRIL (R&D Systems, 5860-AP-010/CF), or IL-12/23 p40 (Sino biological, 10052-H08H) protein was diluted to 1 μg/mL with a PBS (BasalMedia, B320) buffer at pH 7.4, and added to a 96-well microplate (Corning, 3590) at 100 μL/well. The plate was incubated at 4° C. overnight. After the liquid was discarded, 300 μL of 5% skim milk (BD, 232100) diluted with PBS was added to each well for blocking, and the plate was incubated at 37° C. for 2 h. After the blocking was completed, the blocking solution was discarded, and the plate was washed 3 times with a PBST buffer (PBS at pH 7.4 containing 0.1% tween-20). 100 μL of test antibody or fusion protein solution diluted in a gradient was added to each well, and the plate was incubated at 37° C. for 1 h. After the incubation was completed, the plate was washed 3 times with PBST. […] The plate was washed 3 times with PBST. […] The plate was read for absorbance values at 450 nm on a microplate reader, the binding curves of the antibodies to an antigen were fitted with software, and the EC₅₀ values were calculated.

Experiment [13] shares this target. Description: competition ELISA: biotin-labeled p40 to coated IL-12Rβ1. The procedure:
as §1

Experiment [14] has as its target T7, human IL-23 (CT048-H08H, Sino biological) (human, UniProt Q9NPF7 20-189; P29460 23-328).
T7 construct: Bought heterodimer
T7 sequence (looked up) 1: T6 sequence (looked up) 1
T7 sequence (looked up) 2: T2 sequence (looked up)
The experiment in a line: SPR (Biacore), sample captured on Protein A, antigen flowed, 1:1 fit. The procedure:
as §2

The target of experiment [15] is T8, human IL-12 (CT050-H08H, Sino biological) (human, UniProt P29459 23-219; P29460 23-328).
T8 construct: Bought heterodimer
T8 sequence (looked up) 1: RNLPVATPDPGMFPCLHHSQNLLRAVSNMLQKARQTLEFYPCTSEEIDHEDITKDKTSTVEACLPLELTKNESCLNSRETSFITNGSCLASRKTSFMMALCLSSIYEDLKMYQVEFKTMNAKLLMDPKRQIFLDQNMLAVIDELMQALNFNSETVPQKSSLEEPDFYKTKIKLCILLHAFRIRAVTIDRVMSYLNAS
T8 sequence (looked up) 2: T2 sequence (looked up)
Described as above. Here is the method: as §2

For experiment [16], the target named is T9, cynomolgus monkey p40 (10215-CL, R&D Systems) (cynomolgus monkey).
T9 construct: Bought protein
The description is as above. The procedure: as §2

B1: Belimumab (antibody, human IgG1, lambda, V domains shown)
VH: QVQLQQSGAEVKKPGSSVRVSCKASGGTFNNNAINWVRQAPGQGLEWMGGIIPMFGTAKYSQNFQGRVAITADESTGTASMELSSLRSEDTAVYYCARSRDLLLFPHHALSPWGRGTMVTVSS
VL: SSELTQDPAVSVALGQTVRVTCQGDSLRSYYASWYQQKPGQAPVLVIYGKNNRPSGIPDRFSGSSSGNTASLTITGAQAEDEADYYCSSRDSSGNHWVFGGGTELTVLG
notes: Marketed control antibody; also called anti-BAFF antibody belimumab
B1: the binding result in experiment [1] and in experiment [3] was “no binding” throughout. Moreover, the “IC50 (nM) for the inhibition of the BAFF-induced B cell proliferation” value in experiment [2] came to 0.146 nM. Besides, the IC50 (commonly the midpoint of a concentration-inhibition curve) in [4] turned out to be 0.458 nM; in experiment [5], 0.567 nM. The Kd (usually a measure of binding affinity in units of concentration) was 0.105 nM in experiment [6], 0.459 nM in experiment [7] and 0.104 nM in [8]. Besides, the koff (commonly the first-order rate constant of dissociation) was found to be 0.000171 s⁻¹ in [6], 0.000221 s⁻¹ in experiment [7] and 0.000144 s⁻¹ in [8]. In addition, the results for the on-rate constant (kon) in experiment [6], in experiment [7] and in experiment [8] were 1.64e+06 M⁻¹ s⁻¹, 481000 M⁻¹ s⁻¹ and 1.38e+06 M⁻¹ s⁻¹, respectively. In experiment [9], the “IC50 (read off the curve)” value was around 0.7 nM.

B2: Ustekinumab (antibody, human IgG1, kappa, V domains shown)
VH: EVQLVQSGAEVKKPGESLKISCKGSGYSFTTYWLGWVRQMPGKGLDWIGIMSPVDSDIRYSPSFQGQVTMSVDKSITTAYLQWNSLKASDTAMYYCARRRPGQGYFDFWGQGTLVTVSS
VL: DIQMTQSPSSLSASVGDRVTITCRASQGISSWLAWYQQKPEKAPKSLIYAASSLQSGVPSRFSGSGSGTDFTLTISSLQPEDFATYYCQQYNIYPYTFGQGTKLEIKR
notes: Control antibody; also called anti-IL-12/IL-23 p40 subunit antibody ustekinumab
Regarding B2, the binding result in [10] and in experiment [1] was “no binding” in each case. For the same molecule, the “IC50 (nM) for the inhibition of IL-23-induced IL-17 secretion” value in experiment [11] was found to be 2.49 nM. In [12], it took 0.786 nM to reach a half-maximal effect (EC50). Moreover, the IC50 in experiment [13] is 2.08 nM. Moreover, the equilibrium dissociation constant (Kd) was 0.0844 nM in experiment [14], 0.0387 nM in [15] and 0.254 nM in [16]. For the same molecule, the off-rate (koff) in experiment [14] was 0.000107 s⁻¹; in experiment [15] it was 0.00018 s⁻¹; in experiment [16], 0.000236 s⁻¹. For the same molecule, the figures for the kon in experiment [14], in experiment [15] and in experiment [16] were 1.26e+06 M⁻¹ s⁻¹, 4.66e+06 M⁻¹ s⁻¹ and 931000 M⁻¹ s⁻¹, respectively.
